This is an account of results in US20130018010A1, “POLYMERIC CONJUGATES OF ADENINE NUCLEOSIDE ANALOGS” (ENZON PHARMACEUTICALS, INC., priority 2010, published 2013).

Series [1] can be described thus: Hydrolysis rate of PEG conjugates in rat plasma (HPLC). In kind it is in vitro ADME. The settings on record: 37° C., disappearance of PEG derivative. How it is done:
The rates of hydrolysis were obtained by employing a C18 reversed phase column (Jupiter®) using a gradient mobile phase consisting of (a) 0.05 M TFA buffer and (b) acetonitrile. A flow rate of 1 mL/min was used, and chromatograms were monitored using a UV detector at 260 nm for toyocamycin. For hydrolysis in plasma, the derivatives were dissolved in acetonitrile/MeOH at a concentration of 20 mg/mL. The solution was divided into vials with 100 μL and the solvent removed in vacuo. To the residue, 100 μL of plasma was added, then vortexed for 10 sec. The solutions were incubated at 37° C. for various periods of time. A mixture of methanol-acetonitrile (1:1, v/v, 400 μL) was added to a vial at the proper interval and the mixture was vortexed for 1 min, followed by filtration through […] filter membrane. An aliquot of 40 μL of the filtrate was injected into the HPLC. On the basis of the peak area, the amounts of native compound and PEG conjugates were estimated, and the half-life of each compound in different media was calculated using linear regression analysis from the disappearance of PEG derivative.
The rate of hydrolysis was measured by monitoring disappearance of polymer conjugates and appearance of the parent molecule by HPLC using the procedure for example as described in Example 4 in PBS and in rat plasma.

For series [2], the system named is human melanoma cells (A375). The experiment in a line: Tumor growth inhibition in mice xenografted with human melanoma. The series is classed as in vivo. Particulars: for tumor growth inhibition: 1 or 5 mg/kg/dose (toyocamycin equivalent) at day 1, 5, 9, 13, compared to toyocamycin i.v. 5 mg/kg/dose, FIG. 18; for tail vein necrosis: 1 or 5 mg/kg/dose at day 1, 5, 9, 13; for effectiveness in the treatment of melanoma: versus untreated, toyocamycin, or 54. How it is done: The antitumor efficacies of compounds 6, 10, and 54 evaluated in human melanoma xenografted mice. Xenograft tumors were established in mice by injecting human melanoma cells (A375). The mice were treated with toyocamycin i.v. at 5 mg/kg/dose, or compounds 6, 10, and 54 at 1 or 5 mg/kg/dose (based on the amount of toyocamycin) at day 1, 5, 9, and 13. Control group mice received saline solution.

Take “40 k 4-Arm PEG-Carbamate-Aib-Toyocamycin [Compound 10]”: in series [1], the “t1/2 in rat plasma” value amounted to 4.1 h. In series [2], the tumor growth inhibition result is reported as “inhibited tumor growth significantly compared to toyocamycin”; the tail vein necrosis entry was “observed in only one mouse”; the “effectiveness in the treatment of melanoma” value was “more effective in the treatment of melanoma than untreated, toyocamycin, or 54”.

For “40 k 4-Arm PEG-carbamate-Leu-Toyocamycin [Compound 6]”, the “t1/2 in rat plasma” value in series [1] was determined as 0.033 h. In series [2], the tumor growth inhibition entry is listed as “inhibited tumor growth significantly compared to toyocamycin”; the tail vein necrosis result is listed as “observed in only one mouse”; the “effectiveness in the treatment of melanoma” value is on record as “more effective in the treatment of melanoma than untreated, toyocamycin, or 54”.
